# In patent US20200000877A1, “TREATMENT OF TUMOURS USING PEPTIDE-PROTEIN CONJUGATES” (priority 2014, published 2020):
# Entries after “also recorded” stand apart in the source; their conditions may differ.
# Columns and labels:
# 4T1 breast cancer = test: Breast tumour model, orthotopic 4T1 in Balb/c mice, tumour histology; format: in vivo, mouse
# Description: (§1) Murine breast cancer cells (5×10^6, 4T1 from ATCC) were injected orthotopically into the mammary fat pad of Balb/c mice. […] Mice were injected with pimonidazole (hypoxia marker) and FITC-labelled lectin. After 1 h/10 min (pimonidazole/lectin, respectively) circulation, mice were perfused with 2% formalin and tumors dissected and fresh frozen in OCT compound. Tumours were analyzed by histology for vessel frequency (CD31), quality of vessel perfusion (CD31 plus lectin-FITC), caldesmon induction and frequency of intratumoral hypoxia (pimonidazole staining).
# as §1, with “caldesmon (contractile pericyte marker)” for “caldesmon”
# RIP1-Tag5 tumours [1] = test: Short term treatment of tumour-bearing RIP1-Tag5 mice, tumour histology; format: in vivo, mouse; conditions: 2 μg; regimen not stated
# stromal cells = test: CCL21 secretion by stromal cells
# [2] = system: tumour resident macrophages; test: TGFβ secretion of ex vivo purified tumour resident macrophages (ELISA); format: cell-based, mouse; conditions: macrophages from treated tumours; data not shown
# RIP1-Tag5 tumours [3] = test: Long term treatment and survival studies in RIP1-Tag5 mice; format: in vivo, mouse
# Description: 22 week-old RIP1-Tag5 mice were treated with bi-weekly i.v. injections of recombinant proteins as described for short term regimens for a total of 8 weeks and survival/tumour burden analysed at the set endpoint of 30 weeks. For adoptive transfer experiments, 2.5×10^6 activated TagTCR8 CD8^+ T cells were injected i.v twice (at week 4 and week 6). In adoptive transfer experiments (without LIGHT-RGR), mice received two adoptive transfers only. Chemotherapy: 22 week-old mice were treated with i.v. injections of 0.2 ng LIGHT-RGR bi-weekly over a period of 8 weeks and were simultaneously provided with […] cyclophosphamide (metronomic low dose) in drinking water throughout the experiment. The long term treatment regimen is shown schematically in FIG. 2. In addition, mice were treated with cyclophosphamide and/or LIGHT-RGR and survival monitored (death as endpoint).
# For vaccination, mice were primed with one subcutaneous injection (tail base) of 50 μg recombinant Tag protein mixed with 50 μg Freund's adjuvant (Sigma). […] For combination therapies with checkpoint blockade, RIP1-Tag5 mice were treated with LIGHT-RGR (20 ng, iv, biweekly) in combination with anti-PD1 ([…].) and anti-CTLA4 ([…].) antibodies (BioXCell). In addition, mice were treated with triple combination of LIGHT-RGR/anti-PD1+anti CTL4/anti-Tag vaccine.
# (§2) Mice were perfused with 2% neutral-buffered formalin before removal of tumours. Tumours were incubated in 10% (2 h) and 30% sucrose overnight and embedded in OCT compound. For immunohistochemistry the following antibodies were used: anti B220 (BD Pharmingen), anti-CD8 (Ly-2, BD Pharmingen), anti-CD31 (Mec 13.3., BD Pharmingen), anti-ICAM2 (3C4, BD Pharmigen), anti-CD45 (30-F11, BD Pharmingen), anti-CD68 (FA-11, BD Biosciences), anti-calponin (rabbit monoclonal EP798Y, Abcam), anti-caldesmon (rabbit monoclonal E89, Abcam), anti-collagen I or collagen IV (rabbit polyclonal, Abcam), Ki67 (PP67, Abcam), MECA79 (American type tissue culture, ATCC) and αSMA (1A4, Sigma). For secondary detection, AMCA (7-Amino-4-methylcoumarin-3-acetic acid), Cy-3 or FITC-conjugated IgG F(ab′)2 fragments (Jackson Immuno Research) were used. The αSMA staining was amplified using the mouse on mouse (M.O.M.) kit (Vector). For lectin perfusion, mice were i.v. injected with 50 μg of FITC-labelled tomato lectin (Lycopersicon esculentum, Vector). After 10 min of circulation, mice were heart-perfused with 2% neutral-buffered formalin and tumours frozen in OCT. To evaluate vessel leakiness, 1 mg of 70 kDa Texas Red Dextran (Invitrogen) was injected i.v. and allowed to circulate for 10 min. Mice were heart-perfused with PBS followed by 2% neutral buffered formalin and tumours frozen in OCT. Apoptosis was assessed using TUNEL staining (Roche). Images were recorded on a Nikon Ti-E microscope and quantified using NIS software modules (version 3.0).
# Cumulative survival time was calculated by the Kaplan-Meier method and analyzed by the log-rank test. Student's t test (2-tailed) was used unless indicated otherwise. A P value of less than 0.05 was considered statistically significant. Error bars indicate SD unless stated otherwise.
# To study the complex interrelationship between tumour, tumour vessels and the immune system, the inventors' analyses focused on a transgenic mouse model which develops spontaneous tumours that mimic the clinical scenario with regard to native anatomical location, slow growth kinetics, and multistep tumour progression.
# RIP1-Tag5 tumours [4] = test: Short term treatment of tumour-bearing RIP1-Tag5 mice, tumour histology; format: in vivo, mouse
# Description: Short term treatment: commencing at 26-27 weeks of age mice were treated for 2 weeks with bi-weekly intravenous (i.v.) injections of recombinant proteins in 100 μl volume at 0.2 ng (equivalent to approximately […] body weight for a 30 g mouse) or 20 ng (equivalent to approximately […] body weight for a 30 g mouse) LIGHT or LIGHT-RGR. When indicated this was followed by one adoptive transfer of TagTCR8 (CD8+) T cells. Four days later, mice were sacrificed and tumours were isolated for histology. For adoptive transfer experiments, TagTCR8 lymph node cells were activated in vitro for 3 days, with 10 U of rIL-2/ml and 25 nM Tag peptide […] (SEFLIEKRI). 2.5×10^6 activated CD8^+ T cells were injected i.v once. The short term treatment regimen is shown schematically in FIG. 1
# as §2
# To study the complex interrelationship between tumour, tumour vessels and the immune system, the inventors' analyses focused on a transgenic mouse model which develops spontaneous tumours that mimic the clinical scenario with regard to native anatomical location, slow growth kinetics, and multistep tumour progression. In RIP1-Tag5 mice, the oncogene SV40 Large T antigen (Tag; RIP, rat insulin gene promoter) is exclusively expressed in β cells of the pancreas leading to stepwise tumour development through well-characterized stages progressing from hyperplastic islets, to the initiation of Tag expression at approximately 10 weeks, the onset of blood vessel formation in angiogenic islets (termed “angiogenic switch”) at approximately 16 weeks and then to highly vascularised solid tumours at approximately 22 weeks, followed by death at approximately 30 weeks.
# pericyte cell line = test: Calponin/caldesmin expression in pericyte cell line in vitro; format: cell-based; conditions: direct LIGHT induction; data not shown
# [5] = 0.2 ng i.v. bi-weekly for 2 weeks
# [6] = 20 ng i.v. bi-weekly for 2 weeks
molecule,measurement,setting,value
LIGHT-RGR (protein) MESVVQPSVFVVDGQTDIPFRRLEQNHRRRRCGTVQVSLALVLLLGAGLATQGWFLLRLHQRLGDIVAHLPDGGKGSWEKLIQDQRSHQANPAAHLTGANASLIGIGGPLLWETRLGLAFLRGLTYHDGALVTMEPGYYYVYSKVQLSGVGCPQGLANGLPITHGLYKRTSRYPKELELLVSRRSPCGRANSSRVWWDSSFLGGVVHLEAGEEVVVRVPGNRLVRPRDGTRSYFGAFMVGGGCRGRRSTG,vessel normalization as shown for RIP1-Tag5 mice,4T1 breast cancer; 20 ng,reproduced all aspects of vessel normalization
same,vessel normalization,"4T1 breast cancer; 20 ng i.v. bi-weekly for 2 weeks, 4T1",induces vessel normalization
same,contractile markers in pericytes (caldesmon),"4T1 breast cancer; 20 ng, 4T1",induced contractile markers in pericytes
same,overall vascularity (CD31+ vessels),"4T1 breast cancer; 20 ng, 4T1",without change in overall vascularity
same,tumour hypoxia (pimonidazole),"4T1 breast cancer; 20 ng, 4T1",reduced tumour hypoxia; also recorded: reduces tumor hypoxia
same,vessel calibers,"4T1 breast cancer; 20 ng, 4T1",reduced vessel calibers
same,vessel perfusion (FITC-lectin),"4T1 breast cancer; 20 ng, 4T1",increases vessel perfusion
same,binding affinity to tumor vessels relative to RIP1-Tag5,4T1 breast cancer; breast cancer model,lower binding affinity to tumor vessels
same,dose required to recapitulate the vessel phenotype of RIP1-Tag5 mice treated with 0.2 ng,4T1 breast cancer; breast cancer model,20 ng
same,effect on vessels in RIP1-Tag5 mice,RIP1-Tag5 tumours [1],caused vessel death
same,CCL21 secretion by stromal cells,stromal cells,stimulates stromal cells to secrete CCL21
same,TGFβ secretion by tumour macrophages,[2],stimulates macrophages in the tumour environment to secrete TGFβ
same,survival of RIP1-Tag5 mice at week 30,RIP1-Tag5 tumours [3]; 0.2 ng LIGHT-RGR combined with adoptive T cell transfer,approximately 70%
same,survival over vaccination alone or vaccination with LIGHT,RIP1-Tag5 tumours [3]; 0.2 ng in combination with anti-Tag vaccination,substantially increased survival
same,inflammatory response at tumour site / tumour appearance,RIP1-Tag5 tumours [3]; 0.2 ng long term in combination with adoptive transfer of anti-Tag lymphocytes,substantial inflammatory response at the tumour site and pale
same,tumour size / tumour burden,"RIP1-Tag5 tumours [3]; 0.2 ng plus cyclophosphamide, 8 weeks",shift from large tumours to smaller tumours
same,"apoptotic tumour cells (TUNEL), compared to each treatment alone","RIP1-Tag5 tumours [3]; 0.2 ng plus low dose metronomic cyclophosphamide in drinking water, 8 weeks",significant increase in apoptotic tumour cells
same,survival compared to controls,"RIP1-Tag5 tumours [3]; 20 ng LIGHT-RGR with anti-PD-1 (250 μg) and anti-CTLA4 (75 μg) antibodies, week 23 to 45",significantly increased survival
same,survival at 45 weeks of age,RIP1-Tag5 tumours [3]; 20 ng LIGHT-RGR with tumour specific (anti-Tag) vaccine,30%
same,RIP1-Tag5 mice alive at 45 weeks,RIP1-Tag5 tumours [3]; 20 ng LIGHT-RGR+vaccine+anti-PD-1+anti-CTLA4,70%
same,tumour cell apoptosis (TUNEL),"RIP1-Tag5 tumours [3]; 20 ng, long term",increase in tumour cell apoptosis
same,"tumour cell content (Dapi, H&E)","RIP1-Tag5 tumours [3]; 20 ng, long term",substantial reduction of tumour cells
same,tumour necrosis at 30 weeks,"RIP1-Tag5 tumours [3]; 20 ng, long term",highly necrotic
same,survival compared to either treatment alone,RIP1-Tag5 tumours [3]; LIGHT-RGR in combination with cyclophosphamide from week 22,significant increased survival
same,survival of RIP1-Tag5 mice at week 30,"RIP1-Tag5 tumours [3]; single treatments, LIGHT-RGR 0.2 ng, treated from week 22",approximately 30%
same,collagen IV alignment / stromal Col IV,RIP1-Tag5 tumours [4]; [5],close vessel alignment of collagen IV; also recorded: decreased stromal Col IV
same,pericyte attachment to vessels (αSMA+ pericytes),RIP1-Tag5 tumours [4]; [5],firm attachment of pericytes to vessels; also recorded: significantly decreased the protrusion of αSMA+ pericytes from the vasculature
same,normalization of tumour vessels (histology),"RIP1-Tag5 tumours [4]; 0.2 ng i.v. bi-weekly for 2 weeks (four injections), RIP1-Tag5 mice",normalized chaotic tumour vessels
same,total vessel counts / CD31 surface area,"RIP1-Tag5 tumours [4]; 0.2 ng i.v. bi-weekly for 2 weeks, CD31 vessel marker",without affecting total vessel counts; also recorded: total surface area of CD31 remained intact
same,tumour vessel caliber,"RIP1-Tag5 tumours [4]; 0.2 ng i.v. bi-weekly for 2 weeks, small <30 μm, larger 150-200 μm",shift from large to small caliber tumour vessels; also recorded: significant increase in small vessels
same,"T cell infiltration, compared to either treatment on their own",RIP1-Tag5 tumours [4]; 0.2 ng in combination with adoptive transfer of in vitro activated CD8+ T cells,significantly improves T cell infiltration
same,tumour perfusion (FITC-lectin staining of vessels),"RIP1-Tag5 tumours [4]; 0.2 ng, 2 week treatment",indicative of adequate perfusion; also recorded: increased tumour perfusion
same,vessel leakiness (extravasation of 70 kDa dextran),"RIP1-Tag5 tumours [4]; 0.2 ng, 2 week treatment",less leaky phenotype; also recorded: reduced vascular leakiness
same,CD8+ T cell infiltration,"RIP1-Tag5 tumours [4]; 0.2 ng, short term",enhance CD8+ T cell infiltration
same,ICAM-1 expression on tumour endothelial cells,"RIP1-Tag5 tumours [4]; 0.2 ng, short term",increases expression of the inflammatory adhesion molecule ICAM-1
same,expression of collagen I in normalized vessels,"RIP1-Tag5 tumours [4]; 0.2 ng, short term",significantly down regulated
same,expression of contractile markers calponin and caldesmon in αSMA-positive tumour pericytes,"RIP1-Tag5 tumours [4]; 0.2 ng, short term",significant increase in expression; also recorded: significantly up regulated
same,function of vessels within the tumour,"RIP1-Tag5 tumours [4]; 0.2 ng, short term",improved the function of vessels within the tumour
same,formation of ectopic lymph node structures associated with HEVs (MECA79),RIP1-Tag5 tumours [4]; [6],induced the formation of ectopic lymph node structures
same,tumours with HEV structures,RIP1-Tag5 tumours [4]; [6],60-75%
same,immune cell infiltration of intratumoural areas surrounding HEVs,"RIP1-Tag5 tumours [4]; 20 ng, short term",heavily infiltrated with T cells and B cells
same,efficacy (total tumour burden by weight),"RIP1-Tag5 tumours [4]; two week, 20 ng LIGHT-RGR with anti-PD-1/anti-CTLA4 double treatment versus single antibodies",superior to single treatment
"LIGHT (protein, listed as Mus musculus) MESVVQPSVFVVDGQTDIPFRRLEQNHRRRRCGTVQVSLALVLLLGAGLATQGWFLLRLHQRLGDIVAHLPDGGKGSWEKLIQDQRSHQANPAAHLTGANASLIGIGGPLLWETRLGLAFLRGLTYHDGALVTMEPGYYYVYSKVQLSGVGCPQGLANGLPITHGLYKRTSRYPKELELLVSRRSPCGRANSSRVWWDSSFLGGVVHLEAGEEVVVRVPGNRLVRPRDGTRSYFGAFMV",calponin/caldesmin induction in pericyte cells,pericyte cell line,not induced
same,vessel leakiness (extravasation of 70 kDa dextran),"RIP1-Tag5 tumours [4]; 0.2 ng, 2 week treatment",leaky phenotype
